Measured values published in patent publication US20240084003A1 (SIMCERE ZAIMING PHARMACEUTICAL, published 2024).
Changes are numbered by the printed parent chain.

T1: monkey CD22 protein (ACROBiosystems, catalog number SI2-R52Ha) (monkey, UniProt F6W485 20-688)
T1 construct: commercial protein; also called monkey CD22-ECD; monkey CD22-ECD-His
T1 sequence: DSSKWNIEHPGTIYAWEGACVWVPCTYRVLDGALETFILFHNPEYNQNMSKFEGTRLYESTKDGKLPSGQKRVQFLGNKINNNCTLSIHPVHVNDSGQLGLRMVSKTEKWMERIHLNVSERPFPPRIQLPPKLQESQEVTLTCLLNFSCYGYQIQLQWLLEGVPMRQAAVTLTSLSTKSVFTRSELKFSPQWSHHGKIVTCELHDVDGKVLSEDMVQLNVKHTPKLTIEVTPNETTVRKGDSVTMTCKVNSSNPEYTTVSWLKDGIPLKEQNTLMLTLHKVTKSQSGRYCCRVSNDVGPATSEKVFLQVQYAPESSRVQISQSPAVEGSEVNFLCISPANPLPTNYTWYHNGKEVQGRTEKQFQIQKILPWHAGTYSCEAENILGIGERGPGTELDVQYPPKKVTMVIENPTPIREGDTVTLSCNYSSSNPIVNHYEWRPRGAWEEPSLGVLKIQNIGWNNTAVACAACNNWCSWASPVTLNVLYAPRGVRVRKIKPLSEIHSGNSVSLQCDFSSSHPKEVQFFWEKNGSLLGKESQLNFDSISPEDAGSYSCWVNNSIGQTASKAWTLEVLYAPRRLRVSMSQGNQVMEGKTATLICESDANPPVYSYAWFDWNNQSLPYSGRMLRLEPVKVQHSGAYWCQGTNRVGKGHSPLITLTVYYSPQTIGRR

B1: F2.70.2 (antibody, human IgG1, lambda, V domains shown)
VH: EVQLVESGGGLVKPGGSLKLSCAASGFTFSDYGMNWFRQAPEKGLEWVAYISRGSHTIYYADTVKGRFTISRDNAKNTLFLQMTSLRSNDTAMYYCVRMAGYYAMDYWGQGTSVTVSS
VL: QLVLTQSSSASFSLGASAKLTCTLSSQHSSYIIEWYQQQPLKPPKYVMELKKDGSHSTGDGIPDRFSGSSSGADRYLSISNIQPEDEAIYICGVGDTIKEQFVYVFGGGTKVTVLG
notes: human-murine chimeric IgG1 lambda
B2: F2.180.16 (antibody, human IgG1, lambda, V domains shown)
VH: EVKLVESGGGLVLPGGSLKISCAASGFTFSDYYMYWIRQTPDKRLEWVAYISNTGYSTFYPDSVKGRFTVSRDNAKNTLYLQMSRLQSEDTAMYYCARHGILYAMDYWGQGTSVTVSS
VL: B1 VL with L2P, H28Y, S30T, I32T, E34G, K52H, H56R, S57H, I89T, V103M
notes: as for B1
B3: F2.173.9 (antibody, human IgG1, lambda, V domains shown)
VH: EVQLVESGGDLVKPGESLKLSCEASGFTFSNYAMSWVRQTPDRRLEWVATISSIGSFTYYSDSVKGRFTISRDNVKSTLHLQMNNLKSGDTAIYFCARLGVYFDSWGQGTTLTVSS
VL: B1 VL with S30T, I32T, L41H, Y46F, L50I, S57Y, A88T, G95S, T97M, E100D
notes: as for B1
B4: F2.104.10 (antibody, human IgG1, lambda, V domains shown)
VH: B1 VH with L11F, K76E, V114L
VL: B1 VL with L50V, P84S
notes: as for B1
B5: HA22-hIgG1 (antibody, V domains shown)
VH: EVQLVESGGGLVKPGGSLKLSCAASGFAFSIYDMSWVRQTPEKCLEWVAYISSGGGTTYYPDTVKGRFTISRDNAKNTLYLQMSSLKSEDTAMYYCARHSGYGTHWGVLFAYWGQGTLVTVSA
VL: DIQMTQTTSSLSASLGDRVTISCRASQDISNYLNWYQQKPDGTVKLLIYYTSILHSGVPSRFSGSGSGTDYSLTISNLEQEDFATYFCQQGNTLPWTFGCGTKLEIKR
B6: F2.55.1 (antibody, human IgG1, lambda, V domains shown)
VH: QVTLKESGPGILQPSQTLSLTCSFSGFSLSTFPLGVGWIRQPSGKGLEWLAHVWWNDDDYYNPALKSRLTISKDTSNTRVFLSVASVDTAETATYYCARLNWDRWYFDVWGTGTTVTVSS
VL: QLVLTQSSSASFSLGASAKLTCTLSSQHSAYTVEWYQQQPLKPPKYVMELKKDGSHSTGDGIPDRFSGSSSGADRYLSISNIQPEDEAIYICGVGDTVKEQFVFGGGTKVTVLG
notes: human-murine chimeric IgG1 lambda; VL name legible
B7: F2.205.9 (antibody, human IgG1, lambda, V domains shown)
VH: QVTLKESGPGILQPSQTLSLTCSFSGFSLSTSGMGVGWIRQPSGKGLEWLAHIWWDDDEYYNPALKSRLTISKDTSKNQVFLKIANVDTADTATYYCARISIPYGYYDWFFDVWGTGTTVTVSA
VL: QAVVTQESALTTSPGETVTLTCRSSTGAVTTRNYANWVQEKPDHLFTGLIGGTNNRAPGVPARFSGSLIGDKAALTITGAQTEDEAIYFCALWYSNHFIFGSGTKVTVLG
notes: as for B6
B8: F2.151.13 (antibody, human IgG1, lambda, V domains shown)
VH: QVHLQQPGTELMKPGASVKLSCKATGYTFRDYWLEWVKQRPGHGLEWIGEILPGSGNAYYNEKFKGKATFTADTSSNTAYMQLSSLTTEDSAIYYCARVYSNWYFDAWGKGTTVTVSS
VL: B7 VL with R32S, R56Q, T78S, Y94F, F98W, I99V, S102G, V106L
notes: as for B1
B9: F2.121.9 (antibody, human IgG1, lambda, V domains shown)
VH: EVQLVESGGGLVKPGGSLKLSCAASGFTFSDYVMSWIRQTPEKRLEWVATISDAGSYTFYPDNLKGRFTISRDNAKNNLYLQMNHLTSEDTAFYYCAIIYFGNYGGYWGQGTLVTVSV
VL: QAVVTQESALTTSPGGTVVLTCRSNTGAVTTSNYANWVQEKPDHLFTGLIGGTSNRAPGVPVRFSGSLIGDKAALTITGAQTEDDAMYFCALWYSTHWVFGGGTKLTVLG
notes: as for B1
B10: F2.343.16 (antibody, human IgG1, lambda, V domains shown)
VH: QVQLKQSGPGLVQPSQSLSITCTVSGFSLTGYGVQWVRQSPGKGLEWLGVIWGGGGTDYNAAFISRLNIIKDNSKSQVFFKMNSLQADDTAIYYCARYSKYGHFDVWGTGTAVTVSS
VL: QAVVTQESALTTSPGETVTLTCRSSTGAVTTSNYANWVQEKPDHLFTGLIGGTYNRVPGVPARFSGSLIGDKAALTITGAQTEDEAIYFCALWYSNHFWVFGGGTKLTVLG
notes: as for B6

Assays:
[1] = biological target: T1, monkey CD22 protein (ACROBiosystems, …); assay: ELISA, coated monkey CD22 protein, antibody 0.0001 nM
Summary of the method: (§1)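 Direct ELISA: chimeric antibody binding to CD22 coated at 2 μg/mL, with a 37° C, 2 h antibody step and HRP/TMB detection.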

[2] = biological target: T1, monkey CD22 protein (ACROBiosystems, …); assay: ELISA, coated monkey CD22 protein, antibody 0.001 nM
Summary of the method: as §1

[3] = biological target: T2, CD22 on cynomolgus monkey peripheral blood B cells (cynomolgus monkey (Macaca fascicularis)); assay: FACS, cynomolgus PBMC, CD20+ B cells, antibody 1 nM
T2 construct: whole, on cells; also called cynomolgus monkey B cells
Summary of the method: (§2)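 By flow cytometry, the readout is the fraction of CD20-gated B cells that are positive for chimeric antibody. Ficoll-isolated monkey PBMC were incubated 1 h at room temperature with anti-CD20 plus test antibody (1, 10 or 100 nM), then labelled with APC anti-human IgG Fc secondary for 30 min in the dark.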

[4] = biological target: T1, monkey CD22 protein (ACROBiosystems, …); assay: ELISA, coated monkey CD22 protein, antibody 0.00001 nM
Summary of the method: as §1

[5] = biological target: T1, monkey CD22 protein (ACROBiosystems, …); assay: ELISA, coated monkey CD22 protein, antibody 10 nM
Summary of the method: as §1

[6] = biological target: T1, monkey CD22 protein (ACROBiosystems, …); assay: ELISA, coated monkey CD22 protein, antibody 0.1 nM
Summary of the method: as §1

[7] = biological target: T2, CD22 on cynomolgus monkey peripheral …; assay: FACS, cynomolgus PBMC, CD20+ B cells, antibody 10 nM
Summary of the method: as §2

[8] = biological target: T2, CD22 on cynomolgus monkey peripheral …; assay: FACS, cynomolgus PBMC, CD20+ B cells, antibody 100 nM
Summary of the method: as §2

[9] = biological target: T1, monkey CD22 protein (ACROBiosystems, …); assay: ELISA, coated monkey CD22 protein, antibody 0.01 nM
Summary of the method: as §1

[10] = biological target: T1, monkey CD22 protein (ACROBiosystems, …); assay: ELISA, coated monkey CD22 protein, antibody 100 nM
Summary of the method: as §1

Binder | OD450 [1] | OD450 [2] | Proportion of chimeric antibody positive cells to B cells (%) [3] | OD450 [4] | OD450 [5] | OD450 [6] | Proportion of chimeric antibody positive cells to B cells (%) [7] | Proportion of chimeric antibody positive cells to B cells (%) [8] | OD450 [9] | OD450 [10]
B1 | 0.06 OD450 | 0.07 OD450 | 20% | 0.06 OD450 | 0.08 OD450 | 0.06 OD450 | 20% | 34% | 0.06 OD450 | 0.11 OD450
B2 | 0.05 OD450 | 0.05 OD450 | 16% | 0.05 OD450 | 0.06 OD450 | 0.05 OD450 | 20% | 23% | 0.05 OD450 | 0.06 OD450
B3 | 0.06 OD450 | 0.12 OD450 | 19% | 0.06 OD450 | 1.12 OD450 | 1.25 OD450 | 43% | 71% | 0.38 OD450 | 1.18 OD450
B4 | 0.05 OD450 | 0.05 OD450 | 19% | 0.05 OD450 | 0.07 OD450 | 0.05 OD450 | 21% | 26% | 0.06 OD450 | 0.07 OD450
B5 | 0.14 OD450 | 0.47 OD450 | 33% | 0.08 OD450 | 2.41 OD450 | 2.24 OD450 | 89% | 93% | 1.54 OD450 | 2.2 OD450
B6 | 0.07 OD450 | 0.18 OD450 | 22% | 0.06 OD450 | 2 OD450 | 1.73 OD450 | 28% | 66% | 0.85 OD450 | 1.91 OD450
B7 | 0.16 OD450 | 0.63 OD450 | 40% | 0.08 OD450 | 2.28 OD450 | 2.21 OD450 | 41% | 46% | 1.78 OD450 | 2.33 OD450
B8 | 0.1 OD450 | 0.27 OD450 | 38% | 0.07 OD450 | 1.89 OD450 | 1.6 OD450 | 48% | 60% | 0.94 OD450 | 2.77 OD450
B9 | 0.05 OD450 | 0.06 OD450 | 27% | 0.05 OD450 | 0.56 OD450 | 0.34 OD450 | 56% | 64% | 0.13 OD450 | 0.72 OD450
B10 | 0.05 OD450 | 0.05 OD450 | 21% | 0.05 OD450 | 0.06 OD450 | 0.05 OD450 | 21% | 22% | 0.05 OD450 | 0.08 OD450
